Measured values from patent US6121423, “Reshaped human antibody to human interleukin-6” (Chugai Seiyaku Kabushiki Kaisha, dated 2000).

Biological target: recombinant human IL-6 (human, UniProt P05231, biotinylated in the binding-inhibition assay (sites not given); unlabelled in the antigen-binding assay)
Assay: ELISA, IL-6 captured by MH166
Description: An ELISA plate for antigen-binding assay was prepared as follows. A 96-well plate was coated with mouse monoclonal antibody MH166 recognizing a different epitope of human IL-6 from that recognized by SK2 (Matsuda, T. et al., Eur. J. Immunol. 18, 951–956, 1988), and after blocking, recombinant human IL-6 was added thereto. A sample of the chimeric SK2 antibody was sequentially diluted, added to each well, and then an alkaline phosphatase-conjugated goat anti-human IgG antibody (Sigma) was added thereto. After incubation and washing, substrate was added, and absorbance at 405 nm was measured.

B1: chimeric SK2 antibody NTS (antibody, V domains shown)
VH: QVTLKESGPGILQPSQTLSLTCSFSGFSLSTSGMTVGWIRQPSGKGLEWLAHIWWNDDKYYNPALKGRLTISKDTSNNQVFLKIASVVTADTATYYCARMEDYDEAMDYWGQGTSVTVSS
VL: DIQMTQSPASLSVSVGETVTITCRASENIYSNLAWYQQKQGKSPQLLVYAATYLADGVPSRFSGSGSGTQYSLKINSLQSEDFGSYYCQHFWGTPPFGSGTKLEIK
- binding result: binds
